Measurements: EP1173480B1 (Neurochem (International) Limited, dated 2008)
Non-standard residues stand in square brackets, D forms with d. No end group written: not given here.

The binders below were run against Aβ(1-40), naturally occurring all-[L] isomer (UniProt P05067 672-711) (assay: cell-based or functional assay).
Aβ(1-40), naturally occurring all-[L] isomer, sequence (P05067 672-711 limits assumed): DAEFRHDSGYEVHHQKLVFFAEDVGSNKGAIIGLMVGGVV

Row | Binder | order of potency as inhibitor of Aβ(1-40) fibril formation, thioflavin T fluorescence, peptide tested at 20µM (1 = strongest) [rank] | order of potency as inhibitor of Aβ(1-40) fibril formation, thioflavin T fluorescence, peptide tested at 80µM (1 = strongest) [rank]
1 | KKLVFFA [all-[L] Lys-Lys-Leu-Val-Phe-Phe-Ala] | 10 | 7
2 | [dK][dI][dV][dF][dF][dA] [all-[D] Lys-Ile-Val-Phe-Phe-Ala] | 1 | 5
3 | [dA][dF][dF][dV][dL][dK] [all-[D] Ala-Phe-Phe-Val-Leu-Lys (retro-isomer)] | 5 | 1
4 | [dK][dL][dV][dF] [all-[D] Lys-Leu-Val-Phe] | 6 | 9
5 | [dK][dK][dL][dV][dF][dF][dA] [all-[D] Lys-Lys-Leu-Val-Phe-Phe-Ala] | 2 | 1
6 | [dK][dF][dV][dF][dF][dA] [all-[D] Lys-Phe-Val-Phe-Phe-Ala] | 4 | 1
7 | [dK][dL][dV][dF][dF] [all-[D] Lys-Leu-Val-Phe-Phe] | 9 | 10
8 | [dK][dA][dV][dF][dF][dA] [all-[D] Lys-Ala-Val-Phe-Phe-Ala] | 7 | 6
9 | KLVFFA [all-[L] Lys-Leu-Val-Phe-Phe-Ala] | 8 | 8
10 | [dK][dL][dV][dF][dF][dA] [all-[D] Lys-Leu-Val-Phe-Phe-Ala] | 3 | 1
11 | AFFVLK (not fully specified) [all-[L] Ala-Phe-Phe-Val-Leu-Lys] | 11 | 11
